Target: SARS-CoV-2 spike protein, delta (SARS-CoV-2) (UniProt P0DTC2)
Assay: virus-free Luminex binding assay, spike on beads

Imdevimab (RGN87) (antibody) gave an EC50 of 0.17 µg/mL.

Source: patent publication US20230395187A1
